Results on 9 molecules are retold here after patent publication US6084068, “Elongin A and C functional domains” (Oklahoma Medical Research Foundation, dated 2000).

This experiment concerns the target T1, Elongin BC complex (wild type rat Elongin B and C) (rat, UniProt P62870).
T1 chain 1: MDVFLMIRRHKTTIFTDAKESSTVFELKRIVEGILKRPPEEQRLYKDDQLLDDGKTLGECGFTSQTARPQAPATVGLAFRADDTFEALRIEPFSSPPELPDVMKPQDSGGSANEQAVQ
T1 chain 2: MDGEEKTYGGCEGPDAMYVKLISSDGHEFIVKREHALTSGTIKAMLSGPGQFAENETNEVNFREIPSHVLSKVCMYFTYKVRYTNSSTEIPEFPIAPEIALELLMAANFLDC
Briefly: refolded with wild type Elongin B and C; TSK SP-NPR HPLC, SDS-PAGE, silver staining.

B1: Elongin A internal deletion mutant Δ651-690 (other)
chain: MAAESALQVVEKLQARLAANPDPKKLLKYLKKLSVLPITVDILVETGVGKTVNSFRKHEQVGNFARDLVAQWKKLVPVERNNEAEDQDFEKSNSRKRPRDVPQQEEEAEGNYQESWQASGSQPYSPEHRQKKHRKLPELERPHKVAHGHERRDERKRCHKVSPPYSSDPESSDYGHVQSPPPSSPHQMYTDLSRSPEMDQEPIVSHPKPGKVHSNTFQDRLGVSHLGEHQGKGAVSQNKPHKSSHKEKRPVDARGDEKSSVMGREKSHKASSKEESRRLLSEDSAKEKLPSSVVKKEKDREGNSLKKKLSPALDVASDNHFKKPKHKDSEKIKSDKNKQSVDSVDSGRGTGDPLPRAKDKVPNNLKAQEGKVRTNSDRKSPGSLPKVEEMDMDDEFEQPTMSFESYLSYDQPRKKKKKVVKTSGTALGEKGLKKKDSKSTSKNLNSAQKLPKANENKSDKLQPAGAEPTRPRKVPTDVLPALPDIPLPAIQTNYRPLPSLELISSFQPKRKAFSSPQEEEEAGFTGRRMNSKMQVYSGSKCAYLPKMMTLHQQCIRVLKNNIDSIFEVGGVPYSVLEPVLERCTPDQLYRIEECNHVLIEETDQLWKVHCHRDFKEERPEEYESWREMYLRLQDAREQRLRLLTNNIRSAEKVRIKPAPYTTGSSHVPASNSSSSFHSSPEELAYEGPSTSSAHLAPVASSSVSYDPRKPAVKKIAPMMAKTIKAFKNRFSRR
For the molecule B1, the binding result was “binds”.

B2: Elongin A internal deletion mutant Δ566-585 (other)
chain: MAAESALQVVEKLQARLAANPDPKKLLKYLKKLSVLPITVDILVETGVGKTVNSFRKHEQVGNFARDLVAQWKKLVPVERNNEAEDQDFEKSNSRKRPRDVPQQEEEAEGNYQESWQASGSQPYSPEHRQKKHRKLPELERPHKVAHGHERRDERKRCHKVSPPYSSDPESSDYGHVQSPPPSSPHQMYTDLSRSPEMDQEPIVSHPKPGKVHSNTFQDRLGVSHLGEHQGKGAVSQNKPHKSSHKEKRPVDARGDEKSSVMGREKSHKASSKEESRRLLSEDSAKEKLPSSVVKKEKDREGNSLKKKLSPALDVASDNHFKKPKHKDSEKIKSDKNKQSVDSVDSGRGTGDPLPRAKDKVPNNLKAQEGKVRTNSDRKSPGSLPKVEEMDMDDEFEQPTMSFESYLSYDQPRKKKKKVVKTSGTALGEKGLKKKDSKSTSKNLNSAQKLPKANENKSDKLQPAGAEPTRPRKVPTDVLPALPDIPLPAIQTNYRPLPSLELISSFQPKRKAFSSPQEEEEAGFTGRRMNSKMQVYSGSKCAYLPKMMTLHQQCIRVLKNNIDSIDQLYRIEECNHVLIEETDQLWKVHCHRDFKEERPEEYESWREMYLRLQDAREQRLRLLTNNIRSAHANKPKGRQAKMAFVNSVAKPPRDVRRRQEKFGTGGAAVPEKVRIKPAPYTTGSSHVPASNSSSSFHSSPEELAYEGPSTSSAHLAPVASSSVSYDPRKPAVKKIAPMMAKTIKAFKNRFSRR
B2: the binding result was “binds”.

B3: wild type Elongin A (other)
chain: MAAESALQVVEKLQARLAANPDPKKLLKYLKKLSVLPITVDILVETGVGKTVNSFRKHEQVGNFARDLVAQWKKLVPVERNNEAEDQDFEKSNSRKRPRDVPQQEEEAEGNYQESWQASGSQPYSPEHRQKKHRKLPELERPHKVAHGHERRDERKRCHKVSPPYSSDPESSDYGHVQSPPPSSPHQMYTDLSRSPEMDQEPIVSHPKPGKVHSNTFQDRLGVSHLGEHQGKGAVSQNKPHKSSHKEKRPVDARGDEKSSVMGREKSHKASSKEESRRLLSEDSAKEKLPSSVVKKEKDREGNSLKKKLSPALDVASDNHFKKPKHKDSEKIKSDKNKQSVDSVDSGRGTGDPLPRAKDKVPNNLKAQEGKVRTNSDRKSPGSLPKVEEMDMDDEFEQPTMSFESYLSYDQPRKKKKKVVKTSGTALGEKGLKKKDSKSTSKNLNSAQKLPKANENKSDKLQPAGAEPTRPRKVPTDVLPALPDIPLPAIQTNYRPLPSLELISSFQPKRKAFSSPQEEEEAGFTGRRMNSKMQVYSGSKCAYLPKMMTLHQQCIRVLKNNIDSIFEVGGVPYSVLEPVLERCTPDQLYRIEECNHVLIEETDQLWKVHCHRDFKEERPEEYESWREMYLRLQDAREQRLRLLTNNIRSAHANKPKGRQAKMAFVNSVAKPPRDVRRRQEKFGTGGAAVPEKVRIKPAPYTTGSSHVPASNSSSSFHSSPEELAYEGPSTSSAHLAPVASSSVSYDPRKPAVKKIAPMMAKTIKAFKNRFSRR
For the molecule B3, the binding result is reported as “binds”.

B4: Elongin A mutant composed of residues 500 to 730 (other)
chain: LELISSFQPKRKAFSSPQEEEEAGFTGRRMNSKMQVYSGSKCAYLPKMMTLHQQCIRVLKNNIDSIFEVGGVPYSVLEPVLERCTPDQLYRIEECNHVLIEETDQLWKVHCHRDFKEERPEEYESWREMYLRLQDAREQRLRLLTNNIRSAHANKPKGRQAKMAFVNSVAKPPRDVRRRQEKFGTGGAAVPEKVRIKPAPYTTGSSHVPASNSSSSFHSSPEELAYEGPST
Consider B4, for which the binding result was “binds”.

B5: Elongin A internal deletion mutant Δ586-610 (other)
chain: MAAESALQVVEKLQARLAANPDPKKLLKYLKKLSVLPITVDILVETGVGKTVNSFRKHEQVGNFARDLVAQWKKLVPVERNNEAEDQDFEKSNSRKRPRDVPQQEEEAEGNYQESWQASGSQPYSPEHRQKKHRKLPELERPHKVAHGHERRDERKRCHKVSPPYSSDPESSDYGHVQSPPPSSPHQMYTDLSRSPEMDQEPIVSHPKPGKVHSNTFQDRLGVSHLGEHQGKGAVSQNKPHKSSHKEKRPVDARGDEKSSVMGREKSHKASSKEESRRLLSEDSAKEKLPSSVVKKEKDREGNSLKKKLSPALDVASDNHFKKPKHKDSEKIKSDKNKQSVDSVDSGRGTGDPLPRAKDKVPNNLKAQEGKVRTNSDRKSPGSLPKVEEMDMDDEFEQPTMSFESYLSYDQPRKKKKKVVKTSGTALGEKGLKKKDSKSTSKNLNSAQKLPKANENKSDKLQPAGAEPTRPRKVPTDVLPALPDIPLPAIQTNYRPLPSLELISSFQPKRKAFSSPQEEEEAGFTGRRMNSKMQVYSGSKCAYLPKMMTLHQQCIRVLKNNIDSIFEVGGVPYSVLEPVLERCTPHRDFKEERPEEYESWREMYLRLQDAREQRLRLLTNNIRSAHANKPKGRQAKMAFVNSVAKPPRDVRRRQEKFGTGGAAVPEKVRIKPAPYTTGSSHVPASNSSSSFHSSPEELAYEGPSTSSAHLAPVASSSVSYDPRKPAVKKIAPMMAKTIKAFKNRFSRR
For the molecule B5, the binding result was “binds”.

B6: Elongin A internal deletion mutant Δ545-548 (other)
chain: MAAESALQVVEKLQARLAANPDPKKLLKYLKKLSVLPITVDILVETGVGKTVNSFRKHEQVGNFARDLVAQWKKLVPVERNNEAEDQDFEKSNSRKRPRDVPQQEEEAEGNYQESWQASGSQPYSPEHRQKKHRKLPELERPHKVAHGHERRDERKRCHKVSPPYSSDPESSDYGHVQSPPPSSPHQMYTDLSRSPEMDQEPIVSHPKPGKVHSNTFQDRLGVSHLGEHQGKGAVSQNKPHKSSHKEKRPVDARGDEKSSVMGREKSHKASSKEESRRLLSEDSAKEKLPSSVVKKEKDREGNSLKKKLSPALDVASDNHFKKPKHKDSEKIKSDKNKQSVDSVDSGRGTGDPLPRAKDKVPNNLKAQEGKVRTNSDRKSPGSLPKVEEMDMDDEFEQPTMSFESYLSYDQPRKKKKKVVKTSGTALGEKGLKKKDSKSTSKNLNSAQKLPKANENKSDKLQPAGAEPTRPRKVPTDVLPALPDIPLPAIQTNYRPLPSLELISSFQPKRKAFSSPQEEEEAGFTGRRMNSKMQVYSGSKCAYLTLHQQCIRVLKNNIDSIFEVGGVPYSVLEPVLERCTPDQLYRIEECNHVLIEETDQLWKVHCHRDFKEERPEEYESWREMYLRLQDAREQRLRLLTNNIRSAHANKPKGRQAKMAFVNSVAKPPRDVRRRQEKFGTGGAAVPEKVRIKPAPYTTGSSHVPASNSSSSFHSSPEELAYEGPSTSSAHLAPVASSSVSYDPRKPAVKKIAPMMAKTIKAFKNRFSRR
Consider B6, for which the binding result is on record as “binds”.

B7: Elongin A internal deletion mutant Δ691-730 (other)
chain: MAAESALQVVEKLQARLAANPDPKKLLKYLKKLSVLPITVDILVETGVGKTVNSFRKHEQVGNFARDLVAQWKKLVPVERNNEAEDQDFEKSNSRKRPRDVPQQEEEAEGNYQESWQASGSQPYSPEHRQKKHRKLPELERPHKVAHGHERRDERKRCHKVSPPYSSDPESSDYGHVQSPPPSSPHQMYTDLSRSPEMDQEPIVSHPKPGKVHSNTFQDRLGVSHLGEHQGKGAVSQNKPHKSSHKEKRPVDARGDEKSSVMGREKSHKASSKEESRRLLSEDSAKEKLPSSVVKKEKDREGNSLKKKLSPALDVASDNHFKKPKHKDSEKIKSDKNKQSVDSVDSGRGTGDPLPRAKDKVPNNLKAQEGKVRTNSDRKSPGSLPKVEEMDMDDEFEQPTMSFESYLSYDQPRKKKKKVVKTSGTALGEKGLKKKDSKSTSKNLNSAQKLPKANENKSDKLQPAGAEPTRPRKVPTDVLPALPDIPLPAIQTNYRPLPSLELISSFQPKRKAFSSPQEEEEAGFTGRRMNSKMQVYSGSKCAYLPKMMTLHQQCIRVLKNNIDSIFEVGGVPYSVLEPVLERCTPDQLYRIEECNHVLIEETDQLWKVHCHRDFKEERPEEYESWREMYLRLQDAREQRLRLLTNNIRSAHANKPKGRQAKMAFVNSVAKPPRDVRRRQEKFGTGGAAVPSSAHLAPVASSSVSYDPRKPAVKKIAPMMAKTIKAFKNRFSRR
For the molecule B7, the binding result was “binds”.

B8: Elongin A internal deletion mutant Δ611-650 (other)
chain: MAAESALQVVEKLQARLAANPDPKKLLKYLKKLSVLPITVDILVETGVGKTVNSFRKHEQVGNFARDLVAQWKKLVPVERNNEAEDQDFEKSNSRKRPRDVPQQEEEAEGNYQESWQASGSQPYSPEHRQKKHRKLPELERPHKVAHGHERRDERKRCHKVSPPYSSDPESSDYGHVQSPPPSSPHQMYTDLSRSPEMDQEPIVSHPKPGKVHSNTFQDRLGVSHLGEHQGKGAVSQNKPHKSSHKEKRPVDARGDEKSSVMGREKSHKASSKEESRRLLSEDSAKEKLPSSVVKKEKDREGNSLKKKLSPALDVASDNHFKKPKHKDSEKIKSDKNKQSVDSVDSGRGTGDPLPRAKDKVPNNLKAQEGKVRTNSDRKSPGSLPKVEEMDMDDEFEQPTMSFESYLSYDQPRKKKKKVVKTSGTALGEKGLKKKDSKSTSKNLNSAQKLPKANENKSDKLQPAGAEPTRPRKVPTDVLPALPDIPLPAIQTNYRPLPSLELISSFQPKRKAFSSPQEEEEAGFTGRRMNSKMQVYSGSKCAYLPKMMTLHQQCIRVLKNNIDSIFEVGGVPYSVLEPVLERCTPDQLYRIEECNHVLIEETDQLWKVHCHANKPKGRQAKMAFVNSVAKPPRDVRRRQEKFGTGGAAVPEKVRIKPAPYTTGSSHVPASNSSSSFHSSPEELAYEGPSTSSAHLAPVASSSVSYDPRKPAVKKIAPMMAKTIKAFKNRFSRR
B8: the binding result is listed as “binds”.

B9: Elongin A mutant composed of residues 500 to 700 (other)
chain: LELISSFQPKRKAFSSPQEEEEAGFTGRRMNSKMQVYSGSKCAYLPKMMTLHQQCIRVLKNNIDSIFEVGGVPYSVLEPVLERCTPDQLYRIEECNHVLIEETDQLWKVHCHRDFKEERPEEYESWREMYLRLQDAREQRLRLLTNNIRSAHANKPKGRQAKMAFVNSVAKPPRDVRRRQEKFGTGGAAVPEKVRIKPAPY
B9: the binding result is recorded as “binds”.
